Data as given in the supplement of paper PMC9170038.

Test system: MS2 coat protein
Assay: apparent KD of MS2 coat protein; designed switch direction (-1 OFF switch, 1 ON switch): -1; higher = weaker reporter binding
Method in brief: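 Designed RNA switches with common flanks were made on Illumina chips by stalled E. coli RNA polymerase. Titration with SNAP-549-labelled MS2 coat protein doubled from 0.7 or 1.5 nM up to 3 µM. Apparent KD is each design's median over clusters after curve-fitting normalised fluorescence.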

[1] = input ligand: microRNA oligo, concentration not stated
[2] = Eterna round: R95, input ligand: microRNA oligo, concentration not stated
[3] = Eterna round: R95, input ligand: FMN 200 uM
[4] = Eterna round: R95, input ligand: none

| Sequence | apparent KD of MS2 coat protein (input ligand: FMN 200 uM) | apparent KD of MS2 coat protein (input ligand: none) | apparent KD of MS2 coat protein [2] | also measured |
| --- | --- | --- | --- | --- |
| UCUGGUCGAGGAUAUGCAAUCGUGCUUCGGCACGUAAGGUCACAUGAGGAUCACCCAUGUAGAAGGCGACCAGA [E2/4-A3] (Eterna round: R97, puzzle: Exclusion 2) | 34.4 nM | 17.3 nM |  |  |
| UCAAUUUUGACAGGAUAUAGUUUUUGUUUUUCUCUAGAAGGGUCUUUGCACAUGAGGAUCACCCAUGUUCUUUUUAUUUGCAUU [JR_ExcNG1_Sub015] (Eterna round: R96, puzzle: Exclusion NG 1) | 62.2 nM | 63.3 nM |  | apparent KD of MS2 coat protein [1]: 42.3 nM |
| AGCUGUGGCCGAGGAUAUGACAUGAGGAUCACCCAUGUACAUGAUUAGGCCUGGUAACAGGCUCGUCAGAAGGCGGUCUCAGCA [Eli eng2 - 009] (Eterna round: R96, puzzle: Exclusion NG 2) | 46.2 nM | 15.9 nM |  | apparent KD of MS2 coat protein [1]: 13.6 nM |
| CCCGUGUGAGGAUAUACUCUAAGCAAUGUCAGUUGCUACAGGUAGAAGGCACAUGAGGAUCACCCAUGUCCCGG [EX4 C.24] (Eterna round: R97, puzzle: Exclusion 4) | 130 nM | 241 nM |  |  |
| AUUAAUGUCAAAGGAUAUCAGCACGAUUAGUGCUGAGAAGGUUGAACAUGAGGAUCACCCAUGUAGAUCAUUAAUAAUUUAAUU [ENG1/10-B2] (Eterna round: R96, puzzle: Exclusion NG 1) | 26.4 nM | 16.9 nM |  | apparent KD of MS2 coat protein [1]: 17.9 nM |
| CUCGGACAUGAGGAUCACCCAUGUGAGGAUAUGAUGCGAUCGUCGAAAGACGAUAGCAUCAGAAGGCACAAAUG [Fiskers Ex 1 - 25] (puzzle: Exclusion 1) |  |  | 73 nM |  |
| CCAGCGAGUGUGAGGAUAUGCUGGUCCUUGGAUCAGCAGAAGGCACAUGAGGAUCACCCAUGUGAGGACGUUGG [JL bmx4 3.31] (puzzle: Brourd's mod of Exclusion 4) |  |  | 23.9 nM |  |
| GGAUAGUGAGGAUAUCGAUGUUAGGAGGAUGAGGUAGGAUGCGAGAAGGCACAUGAGGAUCACCCAUGUAUGGU [JR_Exclu4_Sub070] (puzzle: Exclusion 4) |  |  | 38.4 nM |  |
| UGUCUUGCAGGAUAUCAUGUGAUAUACAUGAGGAUCACCCAUGUUAGCCUCAUGAGCGUCUGAGAAGGGUAAGACG [Eternabot (L2) Solution 22] (Eterna round: R97, puzzle: Exclusion 5) | 131 nM | 40.1 nM |  |  |
| CAGCGUUCAGGAUAUACAUGAGGAUCACCCAUGUGUUCCAGCUAGGAAACUAGCAAAUGUAGAAGGGAACGCUG [Mat - Exclusion 3 - JL Mod - D1] (Eterna round: R97, puzzle: Exclusion 3) | 463 nM | 125 nM |  |  |
| CCGAAUAUGCAGGAUAUCGUAUCGGAAACGAUACGAGAAGGGCAAACAUGAGGAUCACCCAUGUUCCUUAACGG [Fiskers Ex 6 - 14] (puzzle: Exclusion 6) |  |  | 15.8 nM |  |
| GAAAAGGUAGGAUAUACGAAAAAAAAGGGUAGAAAAAAAAGACAUGAGGAUCACCCAUGUAGAAGGACCAAAAG [salish99_ex2_r3_061] (puzzle: Exclusion 2) |  |  | 36.5 nM | apparent KD of MS2 coat protein [3]: 76.6 nM; apparent KD of MS2 coat protein [4]: 27.1 nM |
| GCCGUCAGUGUGAGGAUAUGCCUAUGGAUACGUAGGCAGAAGGCACAUGAGGAUCACCCAUGUCCUAAGACGGC [JL-BMX4-4.33 Eli mod] (Eterna round: R97, puzzle: Brourd's mod of Exclusion 4) | 146 nM | 190 nM |  |  |
| CUUUUGUGAGGAUAUCAGUAGUAAAAUAAUAAAAUAACUACUGAGAAGGCACAUGAGGAUCACCCAUGUUCCUC [Mat - Exclusion 4 - Mod of Salish - D73] (puzzle: Exclusion 4) |  |  | 33.9 nM |  |
| AAUAAUAGGGAGGAUAUCGUAUCGGAAACGAUACGAGAAGGUCUAACAUGAGGAUCACCCAUGUUCCUCAAUAA [Fiskers Ex 6 - 5] (puzzle: Exclusion 6) |  |  | 40.6 nM | apparent KD of MS2 coat protein [3]: 68.3 nM; apparent KD of MS2 coat protein [4]: 45.7 nM |
| GCUUGCUUUUUGGUUUUCAACAUGAGGAUCACCCAUGUUCGUCUUGUGCCCGGGCCCGGGCGGUGCCCGGGCCCGGG [A 9%] (Eterna round: R97, puzzle: Sensor, turn-off variant 1) | 17.9 nM | 17.8 nM |  |  |
| AAAGAACAUGAGGAUCACCCAUGUAAGGAUAUCCAAAAGAAGGAAAGAAAGAAAAGAAGGAGAAGGUACAAGAA [JR_Exclu1_Sub041] (puzzle: Exclusion 1) |  |  | 60.7 nM | apparent KD of MS2 coat protein [3]: 33.5 nM; apparent KD of MS2 coat protein [4]: 84.5 nM |
| GCAUAUGAUGUAGGAUAUGCGAGACAUGAGGAUCACCCAUGUGAGGGAAGGAGAAGGAGAAGAGAGUAGAAGGAUAGAGUGUGA [Default title] (Eterna round: R96, puzzle: Exclusion NG 2) | 83.8 nM | 85.1 nM |  | apparent KD of MS2 coat protein [1]: 85.3 nM |
| UAUUACCUAGGAUAUACAUGAGGAUCACCCAUGUCACGGGUCAACUUGUCCUACGCGUGUAGAAGGAGGGACCC [JL Ceriza mod 7] (puzzle: Exclusion 3) |  |  | 19.7 nM |  |
| AGUAGUUGUUUCCGUUCUUACAUGAGGAUCACCCAUGUUUCUUGUCGUGCACGCGAUGCUCGUCAGACUACCAGAUG [salish99_TOv1_r3_058] (puzzle: Sensor v3, turn-off variant 1) |  |  | 69.9 nM | apparent KD of MS2 coat protein [3]: 52.5 nM; apparent KD of MS2 coat protein [4]: 61.9 nM |
| UUUACAAGCUAUAGAUCCCACAUGAGGAUCACCCAUGUUGCUGCCAACGGUAGCUUUUUAUGGUUUGCUCGUCUUAU [JL TOV1 3.35] (Eterna round: R97, puzzle: Sensor, turn-off variant 1) | 443 nM | 1860 nM |  |  |
| AGAUCACAUGAGGAUCACCCAUGUGAGGAUAUGAUACUAUGUACUUCGGUACAUAGUAUCAGAAGGCAUAUGAA [Ex1-3: 73] (puzzle: Exclusion 1) |  |  | 28.9 nM |  |
| GGGCGUGAAGGAUAUACAUGAGGAUCACCCAUGUGGGAGGAGAGUGGUGAGGAGGCUGGUAGAAGGUCAGGAUG [JR_Exclusion3_Sub007] (puzzle: Exclusion 3) |  |  | 42.6 nM |  |
| GCACGGUUGGUAGGAUAUCCUUGCGAUUAGCAAGGAGAAGGACCACAUGAGGAUCACCCAUGUACCUCAAUUGUCCUUCCGUGC [Eli exng1 - 026] (Eterna round: R96, puzzle: Exclusion NG 1) | 18.5 nM | 19.3 nM |  | apparent KD of MS2 coat protein [1]: 13.9 nM |
| CUGAUGUGAGGAUAUCUACGCCAUGUCUUUGACAUGGCGCAAGAGAAGGCACAUGAGGAUCACCCAUGUACUUC [jl-ex4-4.41 ViennaUCT mod] (Eterna round: R97, puzzle: Exclusion 4) | 143 nM | 27.9 nM |  |  |
| ACAUGUUAUCCAUGAUAUCACAUGAGGAUCACCCAUGUUAAGGCGAUUUUGAGGUGUAAGCUUUGUGCUCGACUUAU [JR_STOV1_Sub055] (Eterna round: R97, puzzle: Sensor, turn-off variant 1) | 107 nM | 78.8 nM |  |  |
| UCUCGCGGGCAAGGAUAUCCUACGCUGUUCUGGCCCGUGUAUGUUACAUGAGGAUCACCCAUGUGGGAGAAGGUGCACCAGGGC [Design 40] (Eterna round: R96, puzzle: Exclusion NG 2) | 83.3 nM | 76 nM |  | apparent KD of MS2 coat protein [1]: 39.3 nM |
